What was measured:
[1] = target: T1, human NPRA on HEK293 cells bound to ANP (human, UniProt P01160 124-151); test: cell-based or functional assay
T1 sequence: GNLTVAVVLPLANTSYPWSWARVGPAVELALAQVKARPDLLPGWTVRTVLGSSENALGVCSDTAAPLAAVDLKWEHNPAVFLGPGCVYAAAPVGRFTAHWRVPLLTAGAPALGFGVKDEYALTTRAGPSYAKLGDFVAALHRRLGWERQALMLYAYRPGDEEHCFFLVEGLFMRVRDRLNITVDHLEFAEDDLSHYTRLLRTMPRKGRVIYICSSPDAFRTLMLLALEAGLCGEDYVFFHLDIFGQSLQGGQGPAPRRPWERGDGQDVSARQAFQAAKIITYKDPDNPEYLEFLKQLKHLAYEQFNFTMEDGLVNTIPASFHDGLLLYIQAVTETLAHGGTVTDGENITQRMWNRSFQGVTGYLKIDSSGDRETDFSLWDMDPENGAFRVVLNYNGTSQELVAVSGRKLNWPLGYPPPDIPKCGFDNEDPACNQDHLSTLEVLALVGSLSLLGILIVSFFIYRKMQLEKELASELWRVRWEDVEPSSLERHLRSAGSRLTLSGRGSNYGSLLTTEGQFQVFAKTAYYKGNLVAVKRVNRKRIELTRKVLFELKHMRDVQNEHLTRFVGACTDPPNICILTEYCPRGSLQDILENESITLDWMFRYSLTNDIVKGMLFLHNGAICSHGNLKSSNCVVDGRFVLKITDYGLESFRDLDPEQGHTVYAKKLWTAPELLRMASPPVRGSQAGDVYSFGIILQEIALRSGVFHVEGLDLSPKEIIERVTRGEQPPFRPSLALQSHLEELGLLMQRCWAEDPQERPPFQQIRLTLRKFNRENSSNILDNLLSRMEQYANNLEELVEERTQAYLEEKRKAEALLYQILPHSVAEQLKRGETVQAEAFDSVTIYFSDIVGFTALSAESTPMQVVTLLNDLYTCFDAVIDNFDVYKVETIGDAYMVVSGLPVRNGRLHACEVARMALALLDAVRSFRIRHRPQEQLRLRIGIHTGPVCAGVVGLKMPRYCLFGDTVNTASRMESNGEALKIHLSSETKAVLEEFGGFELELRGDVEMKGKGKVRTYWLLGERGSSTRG
T1 sequence (peptide): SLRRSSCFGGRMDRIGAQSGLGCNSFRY

[2] = target: T1, human NPRA on HEK293 cells bound to ANP; test: FACS, HEK NPRA cells with ANP
[3] = target: T2, NPRA-Fc fusion protein bound to ANP (human, UniProt P01160 124-151); test: SPR (Biacore 3000), NPRA-Fc amine-coupled on CM5, analyte with 100 nM human ANP
T2 construct: mature; Receptor-ligand complex; 'human ANP' is stated for Biacore, plain 'ANP' for ELISA and HXMS; also called NPRA-Fc+ANP

B1: 5502 Fab (Fab, V domains shown)
VH: QVQLQQSGPGLVKPSQTLSLTCAISGDSVSSRSASWSWIRQSPGRGLEWLGRIYYRSKWYNDYAVSVKSRITINPDTSKNQFSLQLNSVTPEDTAVYYCARMDVPSFRYFDVWGQGTLVTVSS
VL: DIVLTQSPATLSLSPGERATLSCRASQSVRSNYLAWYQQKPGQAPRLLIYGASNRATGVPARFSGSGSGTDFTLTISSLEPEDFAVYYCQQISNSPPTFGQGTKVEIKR
EC50 of ANP, cGMP production in HEK NPRA cells, with 400 nM Fab [1]: 0.3 nM
factor by which the potency of ANP is enhanced (cGMP, 400 nM Fab) [1]: 10 fold

B2: 5064 IgG1 (antibody, V domains shown)
VH: QVQLQQSGPGLVKPSQTLSLTCAISGDSVSSRSASWSWIRQSPGRGLEWLGRIYYRSKWYNDYAVSVKSRITINPDTSKNQFSLQLNSVTPEDTAVYYCARMDVPSFRYFDVWGQGTLVTVSS
VL: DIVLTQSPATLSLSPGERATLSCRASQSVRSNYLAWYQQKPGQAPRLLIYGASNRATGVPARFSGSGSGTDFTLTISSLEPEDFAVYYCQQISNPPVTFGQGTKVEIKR
notes: Human IgG1 format
EC50 (read off the curve) [2]: ~0.5 nM

B3: 5591 Fab (Fab, V domains shown)
VH: QVQLQQSGPGLVKPSQTLSLTCAISGDSVSSRSASWSWIRQSPGRGLEWLGRTYYRSHWYYEYAQSVKSRITINPDTSKNQFSLQLNSVTPEDTAVYYCARMDVPSFRYFDVWGQGTLVTVSS
VL: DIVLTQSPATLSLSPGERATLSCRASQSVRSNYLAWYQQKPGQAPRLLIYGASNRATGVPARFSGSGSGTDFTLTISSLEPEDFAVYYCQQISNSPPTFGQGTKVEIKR
Kd [3]: 1.16 nM
koff [3]: 0.00103 s⁻¹
kon [3]: 884000 M⁻¹ s⁻¹

B4: 5592 Fab (Fab, V domains shown)
VH: QVQLQQSGPGLVKPSQTLSLTCAISGDSVSSRSASWSWIRQSPGRGLEWLGRTYYRSHWYYEYAQSVKSRITINPDTSKNQFSLQLNSVTPEDTAVYYCARMDVPSFRYFDVWGQGTLVTVSS
VL: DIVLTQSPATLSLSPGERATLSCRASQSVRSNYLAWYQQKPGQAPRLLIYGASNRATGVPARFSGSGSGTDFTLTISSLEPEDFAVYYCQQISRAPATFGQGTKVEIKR
Kd [3]: 0.426 nM
koff [3]: 0.000369 s⁻¹
kon [3]: 868000 M⁻¹ s⁻¹

B5: 5507 Fab (Fab, V domains shown)
VH: QVQLQQSGPGLVKPSQTLSLTCAISGDSVSSRSASWSWIRQSPGRGLEWLGRIYYRSKWYNDYAVSVKSRITINPDTSKNQFSLQLNSVTPEDTAVYYCARMDVPSFRYFDVWGQGTLVTVSS
VL: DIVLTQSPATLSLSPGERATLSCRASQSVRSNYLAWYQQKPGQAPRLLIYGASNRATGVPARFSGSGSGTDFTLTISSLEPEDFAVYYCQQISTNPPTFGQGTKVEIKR
EC50 of ANP, cGMP production in HEK NPRA cells, with 400 nM Fab [1]: 0.5 to 0.6 nM

B6: 5513 Fab (Fab, V domains shown)
VH: QVQLQQSGPGLVKPSQTLSLTCAISGDSVSSRSASWSWIRQSPGRGLEWLGRIYYRSKWYNDYAVSVKSRITINPDTSKNQFSLQLNSVTPEDTAVYYCARMDVPSFRYFDVWGQGTLVTVSS
VL: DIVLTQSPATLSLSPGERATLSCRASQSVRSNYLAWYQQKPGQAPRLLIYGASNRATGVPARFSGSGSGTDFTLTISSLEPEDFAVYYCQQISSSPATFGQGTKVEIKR
EC50 of ANP, cGMP production in HEK NPRA cells, with 400 nM Fab [1]: 0.5 to 0.6 nM

B7: 5514 Fab (Fab, V domains shown)
VH: QVQLQQSGPGLVKPSQTLSLTCAISGDSVSSRSASWSWIRQSPGRGLEWLGRIYYRSKWYNDYAVSVKSRITINPDTSKNQFSLQLNSVTPEDTAVYYCARMDVPSFRYFDVWGQGTLVTVSS
VL: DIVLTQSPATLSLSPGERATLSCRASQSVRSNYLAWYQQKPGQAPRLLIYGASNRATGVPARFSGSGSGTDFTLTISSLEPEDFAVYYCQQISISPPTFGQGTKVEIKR
EC50 of ANP, cGMP production in HEK NPRA cells, with 400 nM Fab [1]: 0.5 to 0.6 nM

B8: 5504 Fab (Fab, V domains shown)
VH: QVQLQQSGPGLVKPSQTLSLTCAISGDSVSSRSASWSWIRQSPGRGLEWLGRIYYRSKWYNDYAVSVKSRITINPDTSKNQFSLQLNSVTPEDTAVYYCARMDVPSFRYFDVWGQGTLVTVSS
VL: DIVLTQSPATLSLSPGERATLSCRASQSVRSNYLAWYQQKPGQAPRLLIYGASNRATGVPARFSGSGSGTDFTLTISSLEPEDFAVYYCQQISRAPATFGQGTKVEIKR
EC50 of ANP, cGMP production in HEK NPRA cells, with 400 nM Fab [1]: 0.3 nM
factor by which the potency of ANP is enhanced (cGMP, 400 nM Fab) [1]: 10 fold
